Among the targets are U1A N15A (UniProt P09012 10-89, N15A); U1A M51A:Y13Q (UniProt P09012 10-89, Y13Q;M51A); U1A E19F:F56A (UniProt P09012 10-89, E19F;F56A); U1A (UniProt P09012 10-89); dK50dM51 S48A (UniProt P09012 10-89, S48A;del50-51); dK50dM51 E19F (UniProt P09012 10-89, E19F;del50-51); dK50dM51 (UniProt P09012 10-89, del50-51); dK50dM51 N15A (UniProt P09012 10-89, N15A;del50-51); U1A M51A:N15V (UniProt P09012 10-89, N15V;M51A); dK50dM51 N16A (UniProt P09012 10-89, N16A;del50-51); U1A M51A (UniProt P09012 10-89, M51A); U1A E19F (UniProt P09012 10-89, E19F); U1A N16A (UniProt P09012 10-89, N16A); U1A E19A:F56A (UniProt P09012 10-89, E19A;F56A); U1A E19S (UniProt P09012 10-89, E19S); U1A E19A:N15V (UniProt P09012 10-89, N15V;E19A); U1A M51F (UniProt P09012 10-89, M51F); U1A M51K (UniProt P09012 10-89, M51K); U1A E19S:F56A (UniProt P09012 10-89, E19S;F56A); U1A M51A:E19A (UniProt P09012 10-89, E19A;M51A); dK50dM51 E19S (UniProt P09012 10-89, E19S;del50-51); dK50dM51 E19A (UniProt P09012 10-89, E19A;del50-51); U1A L49F (UniProt P09012 10-89, L49F); U1A S48A (UniProt P09012 10-89, S48A).

Test in all cases: fluorescence polarization
A general note: Fluorescence polarisation rises when a labelled molecule tumbles more slowly, as on binding a larger partner.

As for GGCAGAUCUGAGCCUGGGAGCUCUCUGCC (structured_RNA) [TAR RNA], the Kd – broadly, the constant that tells how readily two partners part at equilibrium – in the data set with U1A N15A was 11.7 ± 0.9 µM; in the data set with U1A M51A:Y13Q, 210 ± 84.3 µM; with U1A E19F:F56A it was 20.9 ± 3.3 µM; with U1A, 19.1 ± 4.9 µM; with dK50dM51 S48A, 33.9 ± 15.9 µM; with dK50dM51 E19F it was 12.6 ± 1.8 µM. Also, the dissociation constant Kd with dK50dM51 came out at 15.9 ± 2.3 µM; in the data set with dK50dM51 N15A, 91.1 ± 8.8 µM; with U1A M51A:N15V, 46 ± 13.4 µM; in the data set with dK50dM51 N16A it was 62.1 ± 5.4 µM; with U1A M51A, 4.9 ± 0.6 µM; with U1A E19F it was 6.2 ± 0.8 µM. Moreover, the Kd was 8.8 ± 1.4 µM in the data set with U1A N16A; 29.2 ± 6.3 µM in the data set with U1A E19A:F56A; 4.1 ± 0.3 µM with U1A E19S; 14.2 ± 1.4 µM in the data set with U1A E19A:N15V; 16.4 ± 2.3 µM with U1A M51F; 7.7 ± 0.5 µM with U1A M51K. The Kd was 19.2 ± 1.4 µM in the data set with U1A E19S:F56A; 14.9 ± 2.5 µM with U1A M51A:E19A; 7 ± 1.9 µM with dK50dM51 E19S; 10.2 ± 2.2 µM with dK50dM51 E19A; 24.1 ± 4.3 µM in the data set with U1A L49F; 14.2 ± 1.3 µM with U1A S48A.

Source of the values: publication PMC4414246.
